Experimental data reported in publication PMC7048932, “Examining sterically demanding lysine analogs for histone lysine methyltransferase catalysis” (Scientific Reports, 2020).

What was measured:
G9a (human) = G9a (human) (UniProt Q96KQ7)
GLP (human) = GLP (human) (UniProt Q9H9B1)
SETD7 (human) = biological target: T1, SETD7 (human) (UniProt Q8WTS6)
T1 sequence: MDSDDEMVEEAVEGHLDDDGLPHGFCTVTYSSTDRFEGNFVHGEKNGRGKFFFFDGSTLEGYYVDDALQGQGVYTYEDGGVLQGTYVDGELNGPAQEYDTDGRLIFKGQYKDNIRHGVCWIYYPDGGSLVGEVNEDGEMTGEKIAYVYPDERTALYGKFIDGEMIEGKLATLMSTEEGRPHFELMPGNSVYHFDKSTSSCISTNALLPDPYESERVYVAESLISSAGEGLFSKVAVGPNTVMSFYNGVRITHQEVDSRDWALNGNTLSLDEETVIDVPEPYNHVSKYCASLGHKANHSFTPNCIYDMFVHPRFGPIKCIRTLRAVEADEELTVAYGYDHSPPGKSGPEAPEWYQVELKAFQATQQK

Sequence of G9a (human) (Q96KQ7 whole entry): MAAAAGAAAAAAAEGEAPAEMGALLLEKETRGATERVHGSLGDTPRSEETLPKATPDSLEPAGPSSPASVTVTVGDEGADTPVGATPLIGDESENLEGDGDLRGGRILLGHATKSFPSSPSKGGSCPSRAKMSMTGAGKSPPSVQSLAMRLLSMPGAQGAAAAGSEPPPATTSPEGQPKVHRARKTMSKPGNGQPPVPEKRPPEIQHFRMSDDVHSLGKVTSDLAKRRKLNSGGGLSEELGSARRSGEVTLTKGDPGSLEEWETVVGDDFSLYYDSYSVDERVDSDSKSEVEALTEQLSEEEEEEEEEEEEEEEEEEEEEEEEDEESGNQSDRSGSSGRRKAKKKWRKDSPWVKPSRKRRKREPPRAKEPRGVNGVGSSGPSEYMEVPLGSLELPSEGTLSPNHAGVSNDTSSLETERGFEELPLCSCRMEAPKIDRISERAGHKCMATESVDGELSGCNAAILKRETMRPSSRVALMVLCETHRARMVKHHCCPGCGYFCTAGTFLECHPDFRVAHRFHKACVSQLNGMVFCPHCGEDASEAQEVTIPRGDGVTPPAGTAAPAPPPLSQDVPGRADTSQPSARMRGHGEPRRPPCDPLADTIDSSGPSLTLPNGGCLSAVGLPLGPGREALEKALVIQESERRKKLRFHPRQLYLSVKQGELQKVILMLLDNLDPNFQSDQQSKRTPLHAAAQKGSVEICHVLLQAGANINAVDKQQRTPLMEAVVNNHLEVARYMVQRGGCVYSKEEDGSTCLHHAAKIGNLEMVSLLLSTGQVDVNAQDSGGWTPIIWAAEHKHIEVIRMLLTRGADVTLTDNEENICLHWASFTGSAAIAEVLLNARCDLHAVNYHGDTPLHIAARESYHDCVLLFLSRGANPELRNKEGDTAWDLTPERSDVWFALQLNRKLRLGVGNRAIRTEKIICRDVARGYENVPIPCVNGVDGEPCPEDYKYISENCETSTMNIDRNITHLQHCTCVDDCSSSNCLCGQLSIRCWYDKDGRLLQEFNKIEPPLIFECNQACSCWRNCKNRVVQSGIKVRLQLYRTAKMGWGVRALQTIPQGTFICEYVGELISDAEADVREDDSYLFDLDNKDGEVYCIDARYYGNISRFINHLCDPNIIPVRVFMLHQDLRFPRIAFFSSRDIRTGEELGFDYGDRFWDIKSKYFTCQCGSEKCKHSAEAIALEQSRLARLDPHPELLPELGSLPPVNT
Sequence of GLP (human) (Q9H9B1 whole entry): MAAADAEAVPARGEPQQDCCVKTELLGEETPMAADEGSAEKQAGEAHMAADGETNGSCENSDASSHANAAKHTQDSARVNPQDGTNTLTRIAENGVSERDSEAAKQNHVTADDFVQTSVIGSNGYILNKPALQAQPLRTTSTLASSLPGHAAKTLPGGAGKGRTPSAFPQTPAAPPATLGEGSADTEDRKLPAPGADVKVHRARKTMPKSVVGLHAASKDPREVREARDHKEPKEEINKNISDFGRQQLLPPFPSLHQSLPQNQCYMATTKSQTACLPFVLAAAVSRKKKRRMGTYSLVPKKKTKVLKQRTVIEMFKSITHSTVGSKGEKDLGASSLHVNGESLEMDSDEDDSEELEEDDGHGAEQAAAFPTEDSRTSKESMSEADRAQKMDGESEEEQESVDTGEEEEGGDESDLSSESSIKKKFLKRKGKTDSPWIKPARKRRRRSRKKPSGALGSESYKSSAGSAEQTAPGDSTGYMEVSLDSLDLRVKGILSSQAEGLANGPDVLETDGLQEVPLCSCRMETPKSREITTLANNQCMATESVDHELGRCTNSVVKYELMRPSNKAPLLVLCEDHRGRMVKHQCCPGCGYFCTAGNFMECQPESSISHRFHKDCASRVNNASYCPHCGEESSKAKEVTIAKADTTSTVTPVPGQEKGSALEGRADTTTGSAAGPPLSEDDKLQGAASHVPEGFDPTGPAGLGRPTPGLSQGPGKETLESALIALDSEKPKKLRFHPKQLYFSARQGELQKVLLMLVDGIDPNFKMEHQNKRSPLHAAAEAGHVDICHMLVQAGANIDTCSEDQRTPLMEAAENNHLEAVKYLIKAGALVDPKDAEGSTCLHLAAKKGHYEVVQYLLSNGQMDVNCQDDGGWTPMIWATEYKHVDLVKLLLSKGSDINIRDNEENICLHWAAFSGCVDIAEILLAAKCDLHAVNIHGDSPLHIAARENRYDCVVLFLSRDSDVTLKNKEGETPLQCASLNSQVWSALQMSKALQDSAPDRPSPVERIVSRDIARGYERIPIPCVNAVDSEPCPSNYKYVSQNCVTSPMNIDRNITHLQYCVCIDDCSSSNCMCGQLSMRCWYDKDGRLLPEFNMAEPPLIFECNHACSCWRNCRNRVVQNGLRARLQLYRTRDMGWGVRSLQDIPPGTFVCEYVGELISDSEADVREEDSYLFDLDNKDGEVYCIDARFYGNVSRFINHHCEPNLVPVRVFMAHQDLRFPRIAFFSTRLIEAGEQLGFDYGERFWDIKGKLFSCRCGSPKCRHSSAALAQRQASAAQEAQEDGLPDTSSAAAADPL

Row | IC50 of inhibition of G9a (100 nM) methylation of a 21-mer H3 peptide (residues 1–21, 5 µM) with SAM (20 µM), MALDI-TOF MS (G9a (human)) [µM] | IC50 of inhibition of GLP (100 nM) methylation of a 21-mer H3 peptide (residues 1–21, 5 µM) with SAM (20 µM), MALDI-TOF MS (GLP (human)) [µM] | IC50 of inhibition of SETD7 (100 nM) methylation of a 21-mer H3 peptide (residues 1–21, 5 µM) with SAM (20 µM), MALDI-TOF MS (SETD7 (human)) [µM] | percent inhibition of SETD7 (100 nM) methyltransferase activity at 100 µM peptide, MALDI-TOF MS (SETD7 (human)) [%] | Substance
1 | > 100 | > 100 |  |  | H3AP9 histone peptide
2 |  | 26 |  |  | H3F3a9 histone peptide
3 | > 100 | > 100 |  |  | H3Kba9 histone peptide

The next lines start with the substance.

Row | Substance | IC50 of inhibition of G9a (100 nM) methylation of a 21-mer H3 peptide (residues 1–21, 5 µM) with SAM (20 µM), MALDI-TOF MS (G9a (human)) [µM] | IC50 of inhibition of GLP (100 nM) methylation of a 21-mer H3 peptide (residues 1–21, 5 µM) with SAM (20 µM), MALDI-TOF MS (GLP (human)) [µM] | IC50 of inhibition of SETD7 (100 nM) methylation of a 21-mer H3 peptide (residues 1–21, 5 µM) with SAM (20 µM), MALDI-TOF MS (SETD7 (human)) [µM] | percent inhibition of SETD7 (100 nM) methyltransferase activity at 100 µM peptide, MALDI-TOF MS (SETD7 (human)) [%]
4 | H3F4a4 histone peptide |  |  | > 100 | 11
5 | H3F4a9 histone peptide | > 100 | > 100 |  | 
6 | H3K4 analog histone peptide with benzylamine (Kba) at position 4 |  |  | > 100 | 
7 | H3K4 analog histone peptide with meta-aminophenylalanine (F3a) at position 4 |  |  | > 100 | 
8 | H3K4 analog histone peptide with pyridylalanine (AP) at position 4 |  |  | > 100 | 
